We go through one substance from patent US20060166191A1.

In the assay the target is wild-type Gag expressed from the full-length proviral construct pNL4-3 (HIV-1) (UniProt P12493). The experiment in a line: cell-based or functional assay.

“AP3D-5′, AP3 δ subunit residues 1-742 (from UniProt O14617 1-742)”: the cells with particle budding among 100 consecutive 293T cells (thin-section electron microscopy), NL4-3 with AP3D-5′ is 0 cells of 100.
